± gives the standard error. Variants at the floor of the assay were thinned out.
B1: glmS ribozyme (parent)
chain: AUAAAAGCGCCAGAACUACAGAAAUGUAGUUGACGAGGAGGAGGUUUAUCGAAUUUUCGGCGGAUGCCUCCAAA

What was measured:
Conditions in all cases: with glucosamine-6-phosphate
glucosamine-6-phosphate [1] = variants of: B1; assay: self-cleavage kobs at 40 uM GlcN6P; higher = faster cleavage; RNA array
In short: (§1)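 Tracking of barcoded ribozyme variants used a hybridised Cy3 probe at 37 °C, after in situ transcription by E. coli RNA polymerase on sequenced MiSeq chips. The flowed solution held 40 μM to 10 mM glucosamine-6-phosphate in HEPES/KCl/Mg(OAc)2 buffer, and imaging ran over ~14 h. kobs was taken from exponential decay fits of normalised per-tile medians, and kcat and KM from weighted Michaelis–Menten fits.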

glucosamine-6-phosphate [2] = variants of: B1; assay: self-cleavage kobs at 640 uM GlcN6P; higher = faster cleavage; RNA array
In short: as §1

glucosamine-6-phosphate [3] = variants of: B1; assay: self-cleavage kobs at 2500 uM GlcN6P; higher = faster cleavage; RNA array
In short: as §1

glucosamine-6-phosphate [4] = variants of: B1; assay: self-cleavage kobs at 10000 uM GlcN6P; higher = faster cleavage; RNA array
In short: as §1

glucosamine-6-phosphate [5] = variants of: B1; assay: self-cleavage kobs at 160 uM GlcN6P; higher = faster cleavage; RNA array
In short: as §1

Variant | self-cleavage kobs at 40 uM GlcN6P (glucosamine-6-phosphate [1]) | self-cleavage kobs at 640 uM GlcN6P (glucosamine-6-phosphate [2]) | self-cleavage kobs at 2500 uM GlcN6P (glucosamine-6-phosphate [3]) | self-cleavage kobs at 10000 uM GlcN6P (glucosamine-6-phosphate [4]) | self-cleavage kobs at 160 uM GlcN6P (glucosamine-6-phosphate [5])
C58U G60U | < 1e-05 s⁻¹ | < 1e-05 s⁻¹ | < 1e-05 s⁻¹ | < 1e-05 s⁻¹ | –
A12U G32C C67U | < 1e-05 s⁻¹ | – | – | – | –
G7A A15U C58A | < 1e-05 s⁻¹ | < 1e-05 s⁻¹ | < 1e-05 s⁻¹ | < 1e-05 s⁻¹ | –
G9A U31G A39G A48C G60C | < 1e-05 s⁻¹ | – | – | – | –
C11G C58U | < 1e-05 s⁻¹ | – | – | < 1e-05 s⁻¹ | < 1e-05 s⁻¹
U45G G63U A64C | < 1e-05 s⁻¹ | < 1e-05 s⁻¹ | – | – | –
A14U A33G G38U C71A | < 1e-05 s⁻¹ | – | – | – | –
G9U C11U C68U | < 1e-05 s⁻¹ | – | – | – | –
A6G U30G U54A C67G | < 1e-05 s⁻¹ | – | – | < 1e-05 s⁻¹ | –
A52C U56A | < 1e-05 s⁻¹ | < 1e-05 s⁻¹ | – | – | –
G29U U31C A48C | < 1e-05 s⁻¹ | – | – | < 1e-05 s⁻¹ | –
A53G G60C | < 1e-05 s⁻¹ | – | – | < 1e-05 s⁻¹ | –
G7U C34A | < 1e-05 s⁻¹ | < 1e-05 s⁻¹ | – | < 1e-05 s⁻¹ | < 1e-05 s⁻¹
G7U G35U U46A C67U U69C | < 1e-05 s⁻¹ | < 1e-05 s⁻¹ | < 1e-05 s⁻¹ | – | < 1e-05 s⁻¹
C8U A15U U30G G35C G41U | < 1e-05 s⁻¹ | < 1e-05 s⁻¹ | < 1e-05 s⁻¹ | – | –
G7A G32U U47G C50U G63A C67G | 0.000556 ± 0.00014 s⁻¹ | – | – | 0.000988 ± 0.00041 s⁻¹ | –
G44C U46G | < 1e-05 s⁻¹ | < 1e-05 s⁻¹ | < 1e-05 s⁻¹ | – | < 1e-05 s⁻¹
A33C C58A G62A | < 1e-05 s⁻¹ | – | – | – | –
A48C U69G C70U | < 1e-05 s⁻¹ | – | < 1e-05 s⁻¹ | < 1e-05 s⁻¹ | –
A39C A42U C67G | < 1e-05 s⁻¹ | – | < 1e-05 s⁻¹ | – | –
G9U C67G | < 1e-05 s⁻¹ | – | < 1e-05 s⁻¹ | – | < 1e-05 s⁻¹
G13U G59C | < 1e-05 s⁻¹ | < 1e-05 s⁻¹ | – | < 1e-05 s⁻¹ | –
G7C U56A G60U G62A | < 1e-05 s⁻¹ | – | – | – | –
C19U | 0.00125 ± 0.00046 s⁻¹ | 0.00527 ± 0.0011 s⁻¹ | 0.0229 ± 0.0083 s⁻¹ | – | 0.00445 ± 0.0011 s⁻¹
A39C U49C | < 1e-05 s⁻¹ | – | – | < 1e-05 s⁻¹ | < 1e-05 s⁻¹

Variant | self-cleavage kobs at 40 uM GlcN6P (glucosamine-6-phosphate [1]) | self-cleavage kobs at 640 uM GlcN6P (glucosamine-6-phosphate [2]) | self-cleavage kobs at 2500 uM GlcN6P (glucosamine-6-phosphate [3]) | self-cleavage kobs at 10000 uM GlcN6P (glucosamine-6-phosphate [4]) | self-cleavage kobs at 160 uM GlcN6P (glucosamine-6-phosphate [5])
G38U G63U | < 1e-05 s⁻¹ | – | < 1e-05 s⁻¹ | < 1e-05 s⁻¹ | –
A33U A36G G41C A53G | < 1e-05 s⁻¹ | – | – | < 1e-05 s⁻¹ | –
A64G C68G C71A | < 1e-05 s⁻¹ | < 1e-05 s⁻¹ | – | < 1e-05 s⁻¹ | < 1e-05 s⁻¹
A42U C58A | < 1e-05 s⁻¹ | < 1e-05 s⁻¹ | – | – | < 1e-05 s⁻¹
A33U G44U A52U | < 1e-05 s⁻¹ | < 1e-05 s⁻¹ | < 1e-05 s⁻¹ | – | < 1e-05 s⁻¹
G29A A33G C34G C67U | < 1e-05 s⁻¹ | – | – | – | –
A14C U49A G63A | < 1e-05 s⁻¹ | – | – | – | –
A12C C70U | 0.000475 ± 4e-05 s⁻¹ | 0.00328 ± 0.00037 s⁻¹ | 0.0217 ± 0.0053 s⁻¹ | 0.0163 ± 0.0022 s⁻¹ | 0.00111 ± 0.00017 s⁻¹
U54C U65A | 6.51e-05 ± 8.4e-06 s⁻¹ | 0.00147 ± 0.00042 s⁻¹ | – | 0.00332 ± 0.00031 s⁻¹ | –
A39G U55G C67A | 0.000369 ± 0.00011 s⁻¹ | – | – | 0.0117 ± 0.003 s⁻¹ | –
C10A G40U G41A C70A | < 1e-05 s⁻¹ | – | – | < 1e-05 s⁻¹ | –
A36C G41C U54G G66C C68G | < 1e-05 s⁻¹ | – | – | – | –
A12C G38C G44A A64G | < 1e-05 s⁻¹ | – | < 1e-05 s⁻¹ | – | –
A6C G7C | < 1e-05 s⁻¹ | < 1e-05 s⁻¹ | < 1e-05 s⁻¹ | < 1e-05 s⁻¹ | < 1e-05 s⁻¹
A33C G51A | < 1e-05 s⁻¹ | – | < 1e-05 s⁻¹ | < 1e-05 s⁻¹ | –
A12U G44C U65A | < 1e-05 s⁻¹ | – | – | – | –
U31A U55C G63C C67G | < 1e-05 s⁻¹ | – | < 1e-05 s⁻¹ | < 1e-05 s⁻¹ | –
C34A U56A | < 1e-05 s⁻¹ | < 1e-05 s⁻¹ | < 1e-05 s⁻¹ | – | < 1e-05 s⁻¹
A14G A39U U56C | 0.000144 ± 2.6e-05 s⁻¹ | – | – | 0.00921 ± 0.0012 s⁻¹ | –
G41U U45C U54G C67U C71G | < 1e-05 s⁻¹ | < 1e-05 s⁻¹ | – | – | < 1e-05 s⁻¹
C10A U45G A53G | < 1e-05 s⁻¹ | – | – | – | –
G29U G51C | < 1e-05 s⁻¹ | < 1e-05 s⁻¹ | – | < 1e-05 s⁻¹ | –
G9U C16G | < 1e-05 s⁻¹ | – | < 1e-05 s⁻¹ | – | –
A53U U55C | 0.000338 ± 7.3e-05 s⁻¹ | 0.00434 ± 0.00089 s⁻¹ | 0.00602 ± 0.0019 s⁻¹ | 0.0266 ± 0.0065 s⁻¹ | 0.00118 ± 0.0004 s⁻¹
G32C G43C G51U | < 1e-05 s⁻¹ | – | – | < 1e-05 s⁻¹ | –

— the supplement of paper PMC7125110
